Test results: doi:10.1101/2022.04.14.488316 (bioRxiv, 2022)
No end group written: not given here.

Tests used:
Assay in all cases: fluorescence polarisation
[1] = biological target: VHL-ElonginC-ElonginB (VCB) with VHL N67Q (UniProt P40337;Q15369;Q15370, N67Q)
[2] = biological target: VHL-ElonginC-ElonginB (VCB), wild type (UniProt P40337;Q15369;Q15370)
[3] = biological target: VHL-ElonginC-ElonginB (VCB) with VHL P71I (UniProt P40337;Q15369;Q15370, P71I)

Measured: binding result

Sequence of VHL-ElonginC-ElonginB (VCB) with VHL P71I (P40337 54-213 P71I, chain 1 of 3): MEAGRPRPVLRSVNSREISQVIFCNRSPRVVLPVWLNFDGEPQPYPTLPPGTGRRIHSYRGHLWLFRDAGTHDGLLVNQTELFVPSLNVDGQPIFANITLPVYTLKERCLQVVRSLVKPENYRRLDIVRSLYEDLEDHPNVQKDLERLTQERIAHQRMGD
Sequence of VHL-ElonginC-ElonginB (VCB) with VHL P71I (Q15369 17-112, chain 2 of 3): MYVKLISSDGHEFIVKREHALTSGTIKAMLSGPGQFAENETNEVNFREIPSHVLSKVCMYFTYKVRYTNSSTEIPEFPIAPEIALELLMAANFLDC
Sequence of VHL-ElonginC-ElonginB (VCB) with VHL P71I (Q15370 1-104, chain 3 of 3): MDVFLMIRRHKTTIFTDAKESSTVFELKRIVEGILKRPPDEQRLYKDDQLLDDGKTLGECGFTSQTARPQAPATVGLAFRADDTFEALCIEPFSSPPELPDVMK
Sequence of VHL-ElonginC-ElonginB (VCB) with VHL N67Q (P40337 54-213 N67Q, chain 1 of 3): as the sequence (P40337 54-213 P71I, chain 1 of 3) above, with N14Q, I18P counted along it
Sequence of VHL-ElonginC-ElonginB (VCB) with VHL N67Q (Q15369 17-112, chain 2 of 3): as the sequence (Q15369 17-112, chain 2 of 3) above
Sequence of VHL-ElonginC-ElonginB (VCB) with VHL N67Q (Q15370 1-104, chain 3 of 3): as the sequence (Q15370 1-104, chain 3 of 3) above
Sequence of VHL-ElonginC-ElonginB (VCB), wild type (P40337 54-213, chain 1 of 3): as the sequence (P40337 54-213 P71I, chain 1 of 3) above, with I18P counted along it
Sequence of VHL-ElonginC-ElonginB (VCB), wild type (Q15369 17-112, chain 2 of 3): as the sequence (Q15369 17-112, chain 2 of 3) above
Sequence of VHL-ElonginC-ElonginB (VCB), wild type (Q15370 1-104, chain 3 of 3): as the sequence (Q15370 1-104, chain 3 of 3) above

DEALAPYIPMDDDFQLRSF (also: FAM label, site not given here) [5,6-carboxyfluorescein (FAM)-labeled HIF-1α peptide JC9]
binds: all assays above
